Results published in patent publication US20240368286A1 (SHANGHAI JMT BIO TECHNOLOGY, published 2024).
Residue numbers refer to the chain shown, from its start.

T1: Mouse GFRAL protein (Biacore analyte) (mouse, UniProt Q6SJE0 20-349, limits assumed)
T1 construct: also called mGFRAL
T1 sequence (looked up): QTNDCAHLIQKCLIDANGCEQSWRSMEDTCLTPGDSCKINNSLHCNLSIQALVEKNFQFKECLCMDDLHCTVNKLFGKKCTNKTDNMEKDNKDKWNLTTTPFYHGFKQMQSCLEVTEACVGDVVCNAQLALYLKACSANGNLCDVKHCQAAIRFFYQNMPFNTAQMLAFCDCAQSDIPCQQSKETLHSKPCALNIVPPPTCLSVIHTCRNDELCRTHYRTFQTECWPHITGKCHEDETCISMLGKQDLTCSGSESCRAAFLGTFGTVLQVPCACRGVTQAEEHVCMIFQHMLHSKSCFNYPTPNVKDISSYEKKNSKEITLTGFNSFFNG

T2: Human GFRAL protein (Biacore analyte) (human, UniProt Q6UXV0 19-351, limits assumed)
T2 construct: also called hGFRAL
T2 sequence (looked up): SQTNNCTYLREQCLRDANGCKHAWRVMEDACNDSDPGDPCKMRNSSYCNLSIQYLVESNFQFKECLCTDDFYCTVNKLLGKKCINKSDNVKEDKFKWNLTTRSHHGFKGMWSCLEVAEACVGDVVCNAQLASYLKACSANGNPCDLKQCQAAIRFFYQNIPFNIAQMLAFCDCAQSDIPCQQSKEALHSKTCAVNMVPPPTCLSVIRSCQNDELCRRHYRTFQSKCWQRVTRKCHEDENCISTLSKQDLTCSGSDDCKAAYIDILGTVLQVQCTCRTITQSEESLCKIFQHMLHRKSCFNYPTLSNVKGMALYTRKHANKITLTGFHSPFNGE

T3: Human GFRAL (hGFRAL) on HEK293 reporter cells with human RET (human, UniProt Q6UXV0 19-394)
T3 sequence (looked up): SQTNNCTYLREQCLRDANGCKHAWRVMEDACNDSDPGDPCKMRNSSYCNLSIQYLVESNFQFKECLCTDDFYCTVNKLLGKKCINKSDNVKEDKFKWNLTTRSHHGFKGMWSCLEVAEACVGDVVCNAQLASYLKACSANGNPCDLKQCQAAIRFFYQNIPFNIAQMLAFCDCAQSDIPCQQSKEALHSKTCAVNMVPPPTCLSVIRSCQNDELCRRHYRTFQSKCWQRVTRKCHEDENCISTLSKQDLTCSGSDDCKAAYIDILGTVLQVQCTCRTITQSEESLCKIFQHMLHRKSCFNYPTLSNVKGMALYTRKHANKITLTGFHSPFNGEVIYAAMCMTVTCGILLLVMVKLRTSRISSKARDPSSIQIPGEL

T4: Mouse GFRAL (mGFRAL) on HEK293 reporter cells with mouse RET (mouse, UniProt Q6SJE0 20-393)
T4 sequence (looked up): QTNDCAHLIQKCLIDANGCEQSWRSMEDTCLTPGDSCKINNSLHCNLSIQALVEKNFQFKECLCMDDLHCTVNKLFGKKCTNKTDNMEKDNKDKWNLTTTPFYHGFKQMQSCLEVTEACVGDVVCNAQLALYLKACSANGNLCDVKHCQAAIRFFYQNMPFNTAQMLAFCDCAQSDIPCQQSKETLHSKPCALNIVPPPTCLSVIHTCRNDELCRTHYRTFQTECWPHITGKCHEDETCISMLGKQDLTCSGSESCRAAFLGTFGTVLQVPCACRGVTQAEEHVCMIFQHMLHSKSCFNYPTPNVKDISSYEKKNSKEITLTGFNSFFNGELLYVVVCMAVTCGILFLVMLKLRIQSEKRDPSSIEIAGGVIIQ

T5: Mouse GFRAL-Fc protein (mouse, UniProt Q6SJE0 20-349, limits assumed)
T5 construct: not shown: Fc
T5 sequence (looked up): T1 sequence (looked up)

T6: Human GFRAL-His protein (human, UniProt Q6UXV0 19-351)
T6 construct: also called human GFRAL-His fusion protein; not shown: His tag
T6 sequence (looked up): T2 sequence (looked up)

B1: 26D7H5bL5a (antibody, V domains shown)
VH: QVQLVQSGAEVKKPGASVKVSCKVSGYTFTDYGMNWVRQAPGQGLEWMGWINTYTGEPTYAQKLQGRVTFTTDTSTSTAYMELRSLRSDDTAVYYCARRYGYDAGIDAWGQGTTVTVSS
VL: DIQMTQSPSSLSASVGDRVTITCRASESVESYGNNLMHWYQQKPGKAPKLLIYLASYLESGVPSRFSGSGSGTDFTLTISSLQPEDFATYYCQQNNESPWTFGGGTKLEIK
notes: Humanized; also called humanized anti-GFRAL antibody 26D7H5bL5a
B2: 26D7H3aL2c (antibody, V domains shown)
VH: QVQLVQSGAEVKKPGASVKISCKVSGYTFTDYGMNWVRQTPGQGLKWVGWINTYTGEPTYADDFKDRFTFTLDASTSTAYMELRSLRSDDTAVYFCARRYGYDAGIDAWGQGTLVTVSS
VL: EIVLTQSPGTLSLSPGERATLSCRASESVESYGNNLMHWYQQKPGQAPRLLIYLASYLESGVPDRFSGSGSGTDFTLTISRLEPEDFATYYCQQNNESPWTFGQGTKVEIK
notes: Humanized; also called humanized anti-GFRAL antibody 26D7H3aL2c
B3: 8E10 (antibody, V domains shown)
VH: QVQLQQSGSELVRPGSSVKISCRASGYTFSNYWMNWVKQRPGQGLEWIGQIYPGDDDADYNGKFQGKATLTADKSSSTAYMQLNTLTSEDSAVYFCTRSGRRDFDYWGQGTTLTVSS
VL: NIVLTQSPASLAVSLGQRATISCRASESIDNYGNSFMHWYQQKPGQPPKLLIYRASNLESGVPARFSGSGSRTDFTLTIDPVEADDAATYYCQQNNEDPYTFGGGTKLEIK
notes: Murine hybridoma antibody, purified
B4: 165C5 (antibody, V domains shown)
VH: EVKLVESGGGLVKPGGSLKLSCAASGFTFSSYAMSWVRQTPEKRLEWVASITTGGSTYYLDSVRGRFTISRDNARNILSLQMSSLRSEDTAIYYCARSLIITATGFDYWGQGTTLTVSS
VL: DIVMTQSQKFMSISVGDRVNITCRASQDVGTAVAWYQQKPGQSPKLLIYSASNRYTGVPNRFTGSGSGTDFTLAISNMQSEDLADYFCQQYSIYYTFGGGTKLEIK
notes: as for B3
B5: 168A7 (antibody, V domains shown)
VH: QVTLKESGPGILKPSQTLSLTCSFSGFSLSTSDMGVGWIRQPSGKGLEWLAHIWWDDDKYYNPSLKRQLTISKDNSRNQVFLKISSVDTTDTATYYCARLYDYDDEYYFDYWGQGTTLTVSS
VL: DIQMTQTKSSLSASLGDRVTISCRASQDSNNYLNWYQQKPDGTVKLLIYYTSRLHSGVPSRFSGSGSGTDYSLTISNLEHEDIATYFCQQGNTIPWTFGGGTKLEIK
notes: as for B3
B6: 174D6 (antibody, V domains shown)
VH: QVQLKQSGPGLVQPSQSLSITCTVSGFSLTSYGVHWVRQSPGKGLEWLGVIWSGGRTDYNAAFISRLNISKDSSKSQVFFKMNSLQADDTAIYYCARKGSSYYGLYYYGMDFWGQGTSVTVSS
VL: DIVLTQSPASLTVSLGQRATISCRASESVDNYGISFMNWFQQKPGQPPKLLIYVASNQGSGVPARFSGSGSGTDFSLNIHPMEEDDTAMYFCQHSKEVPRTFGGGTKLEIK
notes: as for B3
B7: 174E10 (antibody, V domains shown)
VH: B6 VH with T57I, N68S, S73N, F112Y
VL: DIVMTQSPSSLTVTAGEKVTMSCKSSQSLLNSGNQKNYLTWYQQKSGQTPKLLIYWASTRESGVPDRFTGSGSGTDFTLTISSVQAEDLAVYYCQNDYGYPLTFGAGTKLELK
notes: as for B3
B8: 2D4 (antibody, V domains shown)
VH: EVNLVESGGGLVKPGGPLKLSCAASGFTFSSFVMSWVRQTPEKRLEWVASITSGGTTFYPDSVKGRFTISRDNARNILYLQMSNLRSGDTAMYYCARGPPQFSSLSMDYWGQGTSVTVSS
VL: DIVMTQSQKFMSTSVGDRITITCKASQNVGTAVSWFQQKPGQVPKLLIYSASNRYTGVPDRFTGSGSGTEFTLTISNIQSEDLADYFCQQYSSLFTFGSGTKLEIK
notes: as for B3

Molecular target: T1, Mouse GFRAL protein (Biacore analyte)
Test: Biacore SPR, humanized antibody captured via murine anti-human Fc on CM5, GFRAL injected in 2-fold dilutions, 25 C
Protocol: (§1) Specific protocols are as follows.
(§2) The surface of the CM5 chip was activated using 400 mM EDC and 100 mM NHS at a flow rate of 10 μl/min according to the instructions for the amino-coupled kit (Cat. No. BR100050, Cytiva). Then, the murine anti-human Fc antibody was immobilized in the test channel (Fc2) and the reference channel (Fc1) of the CM5 chip. Finally, the chip was blocked with 1 M ethanolamine at a flow rate of 10 μl/min; The humanized antibody (˜300 RU) diluted to 5 μg/ml was then captured on the assay channel (Fc2), and ligand capture were not carried out on the reference channel. Human, mouse or cynomolgus monkey GFRAL proteins (in a HBS-EP buffer) with 2-fold doubling dilutions was subsequently injected at a flow rate of 30 μL/min and the binding kinetics were evaluated at 25° C. The results are as follows (see Table 12)

Row | koff | Binder
1 | 0.000314 s⁻¹ | B1
2 | 0.000215 s⁻¹ | B2

Molecular target: Cynomolgus monkey GFRAL protein (Biacore analyte) (cynomolgus monkey)
Test: as above
Protocol: as §1, §2

Row | Kd | koff | Binder
3 | 0.246 nM | 0.000231 s⁻¹ | B1
4 | 0.131 nM | 0.000193 s⁻¹ | B2

Molecular target: T2, Human GFRAL protein (Biacore analyte)
Test: as above
Protocol: as §1, §2

Row | Kd | koff | Binder
5 | 0.119 nM | 0.000268 s⁻¹ | B1
6 | 0.0465 nM | 0.000125 s⁻¹ | B2

Molecular target: T3, Human GFRAL (hGFRAL) on HEK293 reporter …
Test: cell-based or functional assay

Row | IC50 (nM), luciferase reporter gene assay, Human GFRAL/human RET | Binder
7 | 3.33 nM | B3
8 | 55.5 nM | B4
9 | 3.29 nM | B5
10 | 104 nM | B6
11 | 37.2 nM | B7
12 | 11.6 nM | B8

Molecular target: T4, Mouse GFRAL (mGFRAL) on HEK293 reporter …
Test: cell-based or functional assay

Row | IC50 (nM), luciferase reporter gene assay, Mouse GFRAL/mouse RET | Binder
13 | > 694 nM | B3
14 | 7.22 nM | B4
15 | > 694 nM | B5
16 | > 694 nM | B6
17 | 105 nM | B7
18 | 2.23 nM | B8

Molecular target: T3, Human GFRAL (hGFRAL) on HEK293 reporter …
Test: cell-based or functional assay
Remark: another data set of the same source

Row | IC50 (nM), luciferase reporter gene assay, Human GFRAL/human RET | Binder
19 | 11.8 nM | B1
20 | 8.3 nM | B2

Molecular target: T4, Mouse GFRAL (mGFRAL) on HEK293 reporter …
Test: cell-based or functional assay
Remark: another data set of the same source

Row | IC50 (nM), luciferase reporter gene assay, Mouse GFRAL/mouse RET | Binder
21 | 0.9 nM | B1
22 | 1.9 nM | B2

Molecular target: T5, Mouse GFRAL-Fc protein
Test: ELISA, antigen coated on plate, purified antibody titrated, HRP anti-mouse IgG detection
Protocol: (§3) The ELISA assay had the following protocols. Human GFRAL-His protein, cynomolgus monkey GFRAL-His protein, or mouse GFRAL-Fc protein were coated on 96-well plates, and after blocking the wells with PBS/1% BSA solution, the hybridoma supernatant or purified antibodies were added to the reaction wells. After incubation for 1 hour at room temperature, HRP-labeled anti-mouse IgG (Fab region) antibody was added to the reaction wells to incubate for an additional hour at room temperature. After the substrate and stop solution were added successively, the OD₄₅₀ values were read. The OD₄₅₀ values were used to verify and assess the binding ability of the antibodies to the GFRAL proteins.

Row | EC50 | Binder
23 | 0.12 nM | B4
24 | 0.14 nM | B6
25 | 0.12 nM | B7
26 | 0.08 nM | B8

Molecular target: T6, Human GFRAL-His protein
Test: as above
Protocol: as §3

Row | EC50 | Binder
27 | 0.05 nM | B3
28 | 0.27 nM | B4
29 | 1.87 nM | B5
30 | 0.28 nM | B6
31 | 0.18 nM | B7
32 | 0.09 nM | B8

Molecular target: Cynomolgus monkey GFRAL-His protein (cynomolgus monkey)
Test: as above
Protocol: as §3

Row | EC50 | Binder
33 | 0.06 nM | B3
34 | 0.03 nM | B4
35 | 0.09 nM | B5
36 | 0.07 nM | B6
37 | 0.06 nM | B7
38 | 0.1 nM | B8

Molecular target: T2, Human GFRAL protein (Biacore analyte)
Test: Biacore SPR, antibody captured via anti-human Fc on CM5, GFRAL injected, 25 C
Protocol: Binding affinity assays were performed for three antibody strains 168A7, 8E10 and 26D7 based on the Biacore affinity assay. The binding affinities of purified antibodies to human or mouse GFRAL were assessed by measuring the equilibrium dissociation constants (KD). The anti-human Fc antibody was immobilized in the flow cell of the CM5 chip according to the instructions of the amino-coupled kit (catalogue number: BR100050, Cytiva). Purified antibodies (˜300 RU) were captured on flow cells 2, 3 and 4 using flow cell 1 as a reference. Human or mouse GFRAL protein (in an HBS-EP buffer) was then injected at a flow rate of 30 μL/min and the binding kinetics were evaluated at 25° C. The results were as follows (FIGS. 1A-1C, Table 4)

Row | Kd | koff | Binder
39 | 17.9 pM | 0.000404 s⁻¹ | B3
40 | 1.45 pM | 7.06e-05 s⁻¹ | B5
